Experimental findings from patent US20100021473A1 (DOMANTIS, published 2010) are described below.

Assay [1] has as its target T1, CD38 immobilised on Biacore CM5 chip (UniProt P28907 43-300, limits assumed).
T1 construct: also called DOM11
Description: Biacore, CD38 immobilised; upper end of the printed range 330-500 nM (Table 8, affinity maturation experiment).

The target in assay [2] is T2, CD138 on cells (UniProt P18827 23-310).
T2 construct: whole, on cells; Endogenous CD138 on cell lines used in FACS; also called DOM12; syndecan-1
T2 sequence (looked up): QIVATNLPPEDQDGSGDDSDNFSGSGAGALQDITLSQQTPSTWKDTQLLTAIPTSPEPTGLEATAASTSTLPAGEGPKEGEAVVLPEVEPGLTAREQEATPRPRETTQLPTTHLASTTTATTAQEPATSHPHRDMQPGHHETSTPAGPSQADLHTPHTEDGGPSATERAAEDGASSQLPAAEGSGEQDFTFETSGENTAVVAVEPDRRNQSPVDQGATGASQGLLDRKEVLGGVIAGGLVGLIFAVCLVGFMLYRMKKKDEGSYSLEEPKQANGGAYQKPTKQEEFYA
Nature of the assay: FACS on HUVEC cells (CD38-/CD138+). The protocol:
(§1) All dAbs were analysed by FACS on antigen positive and negative cell lines using the following method.
(§2) The determination of cell binding by FACS was carried out as follows: cells were centrifuged at 250 g for 5 minutes and the growth medium was removed. The cells were resuspended in FACS incubation buffer at 4° C. at a density of 2×10⁶ cells/ml. The cells were blocked by incubating for 15 minutes at 4° C. in FACS incubation buffer. Fifty microliters of 2× stock of primary antibody (anti-CD38 FITC, anti-CD138 FITC or mIgG1 FITC conjugated isotype control (all BD Biosciences) was added; or dAb was added to cells in FACS incubation buffer and incubated for 30-60 minutes at 4° C. The cells were then washed once in FACS incubation buffer. One hundred microliters of secondary antibody (rabbit anti-Vk) was added to cells in FACS incubation buffer and incubated 30-60 minutes at 4° C. The cells were washed once in FACS incubation buffer. Then 100 ul of 1× tertiary antibody was added to the cells in FACS incubation buffer and incubated for 30-60 mins at 4° C. (for dAbs the tertiary antibody is anti-rabbit FITC (Sigma)). The cells were washed twice in FACS incubation buffer. The cell pellet was resuspend in 200 ul FACS incubation buffer+viable cell marker (BD Viaprobe). The cells were then analyzed by flow cytometry.

Assay [3] addresses T1, CD38 immobilised on Biacore CM5 chip. Nature of the assay: Biacore, CD38 immobilised; lower end of the printed range 330-500 nM (Table 8, affinity maturation experiment).
For assay [4] the target is unchanged. Nature of the assay: SPR (Biacore), CD38 immobilised on CM5 chip. Here is the method:
(§3) Anti-CD38, anti-CEA and anti-CD56 dAbs that were identified as FACS positive clones were in addition analysed by Biacore using the following procedure. The CM5 chip surface was activated by flushing 1:1 EDC/NHS (0.4M1-ethyl-3-(3-dimenthylaminopropyl)-carbodiimide in water; 0.1 M N-hydroxysuccinimide in water) at a flow rate of 5 uL/min for 10 minute contact time. CD38 was immobilised at 500 nM in Acetate buffer pH4 at 5 uL/min this was repeated until the RUs reached between 500 and 1000 (low density). CEA and CD56 were coupled in acetate buffer pH 4.5. Any excess reactive groups were deactivated by running 1M ethanolamine-HCl over the CM5 chip (again 5 uL/min for 7 mins). The affinities of the anti-CD38, anti-CEA and anti-CD56 dAbs were measured on the biacore as described above.
(SPR reads the build-up and loss of mass on a sensor chip optically.)

Assay [5] addresses CD138 and CD56 co-expressed on cells (CD138+/CD56+ double positive cells) (UniProt P18827). Description: cell-based or functional assay.
Assay [6] deals with T3, CD38 and CD138 co-expressed on cells (CD38+/CD138+ double positive cells) (UniProt P28907 1-300; P18827 23-310).
T3 construct: whole, on cells; Two separate membrane proteins on the same cell, not a complex; also called RPMI8226; OPM2
Description: FACS cell binding titration on OPM2 cells (CD38+/CD138+), arithmetic mean fluorescence. The table prints no unit; the unit is taken from the x axis 'log conc in nm' (nanomolar). The protocol:
as §2
Anti-CD38 and anti-CD138 affinity matured dAbs were paired to create dual specific ligands by cloning an anti-CD38 dAb and an anti-CD138 dAb into a dual expression vector. To determine if the increased affinity of the monomers was reflected in increased binding affinity of the dual specific ligand, a range of the affinity matured anti-CD38 dAbs were paired with the anti-CD138 dAb DOM12-45, a range of affinity matured anti-CD138 dAbs were paired with anti-CD38 dAbs, and a range of affinity matured anti-CD38 dAbs and affinity matured anti-CD138 dAbs were paired. All dual specific ligands were expressed in E. coli and purified using protein L agarose followed by Resource S cation exchange chromatography when required. The binding affinity of the dual specific ligands was assessed by FACS as described previously. In this study, a range of concentrations was used to allow determination of EC50.

Assay [7] has as its target T2, CD138 on cells. Nature of the assay: FACS dot plot (FSC-H against FL1-H) on H647 cells (CD38-/CD138+), ligand at 50 nM.
The target in assay [8] is T3, CD38 and CD138 co-expressed on cells …. Description: FACS cell binding titration on OPM2 cells (CD38+/CD138+), arithmetic mean fluorescence against log conc in nm.
For assay [9], the target named is T2, CD138 on cells. Nature of the assay: FACS on RPMI cells (CD38+/CD138+), dAb at 500 nM. The protocol: as §1, §2
Assay [10] concerns the target T4, CD38 on cells (UniProt P28907 1-300).
T4 construct: whole, on cells; Endogenous CD38 on cell lines used in FACS or microscopy; also called DOM11; T10
Description: FACS on RPMI cells (CD38+/138+). The protocol:
as §1, §2

In assay [11] the target is T1, CD38 immobilised on Biacore CM5 chip. Nature of the assay: SPR (Biacore) co-injection on immobilised CD38, dAbs at 500 nM. Here is the method: as §3
Epitope mapping was performed to determine whether anti-CD38 dAbs bound to different epitopes on CD38. The assay was performed on BIAcore as described above using a chip coated at medium density (RUs of ˜2000). CD38 was coated on to a CM5 chip at medium density as described above. Using the co-inject function, the first anti-CD38 dAbs was injected at a concentration of 500 nM. Both the first and second anti-CD38 dabs were the co-injected at the same concentration (500 nM). As both dAbs bind different epitopes, the RUs during the second injection increase beyond the level of binding of the first dAb.

B1: DOM11-3 (other)
chain: DIQMTQSPSSLSASVGDRVTITCRASQNIDSRLSWYQQKPGKAPKLLIYRTSVLQSGVPSRFSGSGSGTDFTLTISSLQPEDFATYYCQQWDMFPLTFGQGTKVEVK
notes: Anti-CD38 domain antibody (dAb) monomer; also called DOM11-3A
As for B1, the figures for the Kd in [1], in assay [3] and in assay [4] were 0.33 to 0.5 µM, 0.33 to 0.5 µM and 0.25 µM, respectively. Also, in assay [2], the binding result was “no binding”.

B2: DOM14-23/DOM12-45 anti-CD138/anti-CD56 dual specific ligand (bispecific antibody, part only; not given: linker between dAbs, not shown: small tags and cut ends)
chain, part: DIQMTQSPSSLSASVGDRVTITCRASQDIFPFLNWYQQKPGKAPELLIYRASILHSGVPSRFSGSGSGTDFTLTISSLQPEDFATYYCQQIARSPRTFGQGTKVEIKRDIQMTQSPSSLSASVGDRVTITCRASQDIGDRLRWYQQKPGKAPKLLIYHGSRLESGVPSRFSGSRSGTDFTLTISSLQPEDFATYYCQQQWFRPYTFGQGTKVEIKR
As for B2, the % internalized in [5] is 43%.

B3: DOM11-3/DOM12-45 anti-CD38/anti-CD138 dual specific ligand (bispecific antibody)
chain: DIQMTQSPSSLSASVGDRVTITCRASQNIDSRLSWYQQKPGKAPKLLIYRTSVLQSGVPSRFSGSGSGTDFTLTISSLQPEDFATYYCQQWDMFPLTFGQGTKVEIKRSSGGGGSGGGGSGGGGSGGGGSGGGGSTDIQMTQSPSSLSASVGDRVTITCRASQDIGDRLRWYQQKPGKAPKLLIYHGSRLESGVPSRFSGSRSGTDFTLTISSLQPEDFATYYCQQQWFRPYTFGQGTKVEIKR
notes: In-line fusion of two dAbs, expressed in E. coli; also called DOM11-3/12-45
Take B3: in assay [6], the midpoint of the response, the EC50, lay at 0.0444 µM. In assay [7], the percent of cells right of the FL1-H gate line is 3%.

B4: DOM11-3-15/DOM12-45-1 (bispecific antibody)
chain: DIQMTQSPSSLSASVGDRVTITCRASQNIDSRLSWYQQKPGKAPKLLIYRASVLQSGVPSRFSGTGSGTDFTLTISSLQPEDFATYYCQQWDMFPLSFGQGTKVEIKRSSGGGGSGGGGSGGGGSGGGGSGGGGSTDIQMTQSPSSLSASVGDRVTITCRASQDIGDRLRWYQQNPGKAPKLLIYHGSRLESGVPSRFSGNRSGTDFTLTISSLQPEDFATYYCQQQWFRPYTFGQGTKVEIKR
Take B4: the EC50 (read off the curve) (as a rule, the concentration needed to bring the measured effect to its halfway point) in [8] was found to be 0.1 µM.

B5: DOM12-45 (other)
chain: DIQMTQSPSSLSASVGDRVTITCRASQDIGDRLRWYQQKPGKAPKLLIYHGSRLESGVPSRFSGSRSGTDFTLTISSLQPEDFATYYCQQQWFRPYTFGQGTKVEIKR
notes: Anti-CD138 dAb monomer
B5: in assay [9], the binding result is “binds”.

B6: DOM11-23 (other)
chain: DIQMTQSPSSLSASVGDRVTITCRASQSINVRLIWYQQKPGKDPKLLIYSSSHLQSGVPSRFSGSGSGTDFTLTISSLQPEDFATYYCQQYHYTPFTFGQGTKVEIKR
notes: Anti-CD38 dAb monomer
As to B6, the binding result in assay [10] and in assay [11] was “binds” each time.
